From the supplement of paper PMC9233669
This sample holds only a part of the variants without activity.

Legend:
[1] = system: biotinyl-Phe-oxazolone; test: self-aminoacylation, catalytic enhancement (BFO) (fold over background); higher = more active; k-Seq, kA / k0A0; sequences stand for … in GGGAAUGGAUCCACAUCUACGAAUUC…UUCACUGCAGACUUGACGAAGCUG
Outline: (§1)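 The uncatalyzed rate is the low-activity peak of a bimodal Gaussian fit, and catalytic enhancement is median kA divided by it. The kA values came from pseudo-first-order fits, with 1000 bootstraps, of per-sequence fraction reacted measured by streptavidin capture, triplicate qPCR and Illumina sequencing. Mutagenized RNA pools with a 21-nt variable region (0.43 μM) were reacted with each biotinyl-aminoacyl-oxazolone at 2–1250 μM in 50 μL HEPES/NaCl/KCl/MgCl2/CaCl2 buffer with 5% acetonitrile, pH 6.9–7.0, for 90 minutes at room temperature.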

[2] = system: biotinyl-Ile-oxazolone; test: self-aminoacylation, catalytic enhancement (BIO) (fold over background); higher = more active; k-Seq, kA / k0A0; sequences stand for … in GGGAAUGGAUCCACAUCUACGAAUUC…UUCACUGCAGACUUGACGAAGCUG
Outline: as §1

[3] = system: biotinyl-Leu-oxazolone; test: self-aminoacylation, catalytic enhancement (BLO) (fold over background); higher = more active; k-Seq, kA / k0A0; sequences stand for … in GGGAAUGGAUCCACAUCUACGAAUUC…UUCACUGCAGACUUGACGAAGCUG
Outline: as §1

[4] = system: biotinyl-Trp-oxazolone; test: self-aminoacylation, catalytic enhancement (BWO) (fold over background); higher = more active; k-Seq, kA / k0A0; sequences stand for … in GGGAAUGGAUCCACAUCUACGAAUUC…UUCACUGCAGACUUGACGAAGCUG
Outline: as §1

[5] = system: biotinyl-Val-oxazolone; test: self-aminoacylation, catalytic enhancement (BVO) (fold over background); higher = more active; k-Seq, kA / k0A0; sequences stand for … in GGGAAUGGAUCCACAUCUACGAAUUC…UUCACUGCAGACUUGACGAAGCUG
Outline: as §1

[6] = system: biotinyl-Met-oxazolone; test: self-aminoacylation, catalytic enhancement (BMO) (fold over background); higher = more active; k-Seq, kA / k0A0; sequences stand for … in GGGAAUGGAUCCACAUCUACGAAUUC…UUCACUGCAGACUUGACGAAGCUG
Outline: as §1

Sequence | self-aminoacylation [1] | self-aminoacylation [2] | self-aminoacylation [3] | self-aminoacylation [4] | self-aminoacylation [5] | self-aminoacylation [6]
AUUCACCCAGGUCACCGGGUG [Fam2.2 aminoacylation ribozyme variant] | 39.4 | 3.47 | 5.75 | 4.89 | 3.77 | 5.66
AUUCACCCAGGUCAGCGGGUG [Fam2.2 aminoacylation ribozyme variant] | 18.4 | 2.93 | 5.61 | 4.34 | 2.73 | 3.76
AUUCACCCAGGUCAUCGGGCG [Fam2.2 aminoacylation ribozyme variant] | 18 | 2.72 | 4.5 | 2.97 | 2.62 | 3.77
AUUCACCCAGGUCAUCGGGUC [Fam2.2 aminoacylation ribozyme variant] | 6.42 | 1.14 | 1.92 | 1.39 | 1.88 | 1.5
AUUCACCCAGGUCAUUGGGUG [Fam2.2 aminoacylation ribozyme variant] | 23.8 | 2.31 | 4.11 | 3.71 | 2.52 | 3.36
AUUCACCCAGGUCCUCGGGUG [Fam2.2 aminoacylation ribozyme variant] | 35.5 | 3.22 | 6.67 | 5.85 | 3.89 | 5.45
AUUCACCCAUGUCAUCGGGUG [Fam2.2 aminoacylation ribozyme variant] | 46.4 | 3.72 | 7.33 | 5.22 | 3.15 | 6.58
AUUCACCGAGGUCACCGGGUG [Fam2.2 aminoacylation ribozyme variant] | 74.9 | 6.91 | 10.8 | 8.69 | 5.88 | 9.61
AUUCACCGAGGUCAUCGCGUG [Fam2.2 aminoacylation ribozyme variant] | 117 | 7.64 | 19.1 | 14.8 | 9.71 | 16
AUUCACCGAGGUCAUCGGGGG [Fam2.2 aminoacylation ribozyme variant] | 7.01 | 2.59 | 2.65 | 3.16 | 2.71 | 2.95
AUUCACCGAGGUCAUCUGGUG [Fam2.2 aminoacylation ribozyme variant] | 34.6 | 2.39 | 5.72 | 3.61 | 2.69 | 4.31
AUUCACCGAGGUCAUGGGGUG [Fam2.2 aminoacylation ribozyme variant] | 86.3 | 6.15 | 14.7 | 11.4 | 6.55 | 11.4
AUUCACCGCGGUCAUCGGGUG [Fam2.2 aminoacylation ribozyme variant] | 59.7 | 4.65 | 8.56 | 7.69 | 5.04 | 7.49
AUUCACCUAAGUCAGCGGGUG [Fam2.2 aminoacylation ribozyme variant] | 25 | 3.01 | 5.01 | 2.8 | 2.88 | 3.78
AUUCACCUAAGUCUUCGGGUG [Fam2.2 aminoacylation ribozyme variant] | 33.4 | 3.49 | 6.66 | 5.42 | 3.85 | 4.98
AUUCACCUACGCCAUCGGGUG [Fam2.2 aminoacylation ribozyme variant] | 21.9 | 2.1 | 4.34 | 3.52 | 2.11 | 3.6
AUUCACCUACGUCAUCGAGUG [Fam2.2 aminoacylation ribozyme variant] | 12.5 | 2.45 | 4.08 | 3.77 | 2.71 | 4.25
AUUCACCUACGUCAUCGGGCG [Fam2.2 aminoacylation ribozyme variant] | 16.3 | 2.62 | 3.26 | 2.75 | 2.97 | 3.42
AUUCACCUACGUCAUCGUGUG [Fam2.2 aminoacylation ribozyme variant] | 0.74 | 0.632 | 0.86 | 0.425 | 0.818 | 0.602
AUUCACCUACGUCAUGGGGUG [Fam2.2 aminoacylation ribozyme variant] | 11 | 1.79 | 2.62 | 1.67 | 2.01 | 2.5
AUUCACCUACGUCCUCGGGUG [Fam2.2 aminoacylation ribozyme variant] | 33.2 | 2.7 | 7.17 | 4.21 | 2.12 | 4.71
AUUCACCUACGUCUUCGGGUG [Fam2.2 aminoacylation ribozyme variant] | 24 | 2.44 | 4.28 | 3.34 | 2.81 | 3.36
AUUCACCUAGAUCAUUGGGUG [Fam2.2 aminoacylation ribozyme variant] | 18 | 2.15 | 3.94 | 3.54 | 1.91 | 3.71
AUUCACCUAGCUCAUCGGGUA [Fam2.2 aminoacylation ribozyme variant] | 11.2 | 2.08 | 2.41 | 2.53 | 2.54 | 2.03
AUUCACCUAGGCCAACGGGUG [Fam2.2 aminoacylation ribozyme variant] | 14.5 | 2.23 | 4.01 | 3.02 | 2.04 | 2.61
AUUCACCUAGGCCACCGGGUG [Fam2.2 aminoacylation ribozyme variant] | 13.6 | 3.83 | 6.51 | 4.16 | 3.27 | 5.04

Sequence | self-aminoacylation [1] | self-aminoacylation [2] | self-aminoacylation [3] | self-aminoacylation [4] | self-aminoacylation [5] | self-aminoacylation [6]
AUUCACCUAGGCCAGCGGGUG [Fam2.2 aminoacylation ribozyme variant] | 24.8 | 3.59 | 4.78 | 3.78 | 4.07 | 4.21
AUUCACCUAGGCCAUCGGGCG [Fam2.2 aminoacylation ribozyme variant] | 15.5 | 2.65 | 3.11 | 5.38 | 3.17 | 3.01
AUUCACCUAGGCCAUCGGUUG [Fam2.2 aminoacylation ribozyme variant] | 8.73 | 1.08 | 1.32 | 0.695 | 1.04 | 1.05
AUUCACCUAGGGCACCGGGUG [Fam2.2 aminoacylation ribozyme variant] | 23.3 | 3.58 | 4.66 | 3.62 | 3.88 | 4.01
AUUCACCUAGGGCAUCGGGUU [Fam2.2 aminoacylation ribozyme variant] | 5.04 | 1.91 | 2.37 | 2.78 | 2.01 | 2.08
AUUCACCUAGGGCAUCGGUUG [Fam2.2 aminoacylation ribozyme variant] | 0.577 | 1.02 | 1.12 | 0.909 | 0.969 | 1.05
AUUCACCUAGGGUAUCGGGUG [Fam2.2 aminoacylation ribozyme variant] | 50.9 | 3.84 | 8.63 | 6.31 | 3.99 | 6.75
AUUCACCUAGGUAAUCGCGUG [Fam2.2 aminoacylation ribozyme variant] | 16.1 | 1.75 | 2.8 | 2.74 | 2.15 | 2.51
AUUCACCUAGGUAAUCGGAUG [Fam2.2 aminoacylation ribozyme variant] | 0.527 | 0.61 | 0.546 | 0.594 | 0.524 | 0.585
AUUCACCUAGGUAAUCGGCUG [Fam2.2 aminoacylation ribozyme variant] | 0.486 | 0.944 | 1.31 | 1.2 | 1.02 | 1.23
AUUCACCUAGGUAAUCGGGUU [Fam2.2 aminoacylation ribozyme variant] | 0.331 | 0.997 | 1.17 | 0.977 | 1.16 | 1.09
AUUCACCUAGGUAAUUGGGUG [Fam2.2 aminoacylation ribozyme variant] | 32.1 | 2.94 | 6.35 | 4.01 | 2.63 | 4.54
AUUCACCUAGGUCAACGGGGG [Fam2.2 aminoacylation ribozyme variant] | 12.7 | 1.75 | 2.19 | 2.31 | 1.84 | 1.83
AUUCACCUAGGUCAACGGUUG [Fam2.2 aminoacylation ribozyme variant] | 1.03 | 0.852 | 0.71 | 0.94 | 0.808 | 0.808
AUUCACCUAGGUCAGCGGGCG [Fam2.2 aminoacylation ribozyme variant] | 27 | 5.22 | 7.99 | 4.44 | 5.42 | 5.27
AUUCACCUAGGUCAGCGGGGG [Fam2.2 aminoacylation ribozyme variant] | 27.6 | 4.35 | 5.24 | 5.24 | 3.43 | 5.1
AUUCACCUAGGUCAGGGGGUG [Fam2.2 aminoacylation ribozyme variant] | 13.9 | 1.78 | 3.4 | 2.55 | 1.8 | 2.67
AUUCACCUAGGUCAUACGGUG [Fam2.2 aminoacylation ribozyme variant] | 55.7 | 4.38 | 10.3 | 6.75 | 4.41 | 7.59
AUUCACCUAGGUCAUAGAGUG [Fam2.2 aminoacylation ribozyme variant] | 10.1 | 2.23 | 3.92 | 2.12 | 2.08 | 2.98
AUUCACCUAGGUCAUAGCGUG [Fam2.2 aminoacylation ribozyme variant] | 17.1 | 2.46 | 4.63 | 3.55 | 2.15 | 3.36
AUUCACCUAGGUCAUAGGGUG [Fam2.2 aminoacylation ribozyme variant] | 2.06 | 1.39 | 2.06 | 1.49 | 1.35 | 1.75
AUUCACCUAGGUCAUAGGUUG [Fam2.2 aminoacylation ribozyme variant] | 0.595 | 0.63 | 0.9 | 0.441 | 0.77 | 0.846
AUUCACCUAGGUCAUCAAGUG [Fam2.2 aminoacylation ribozyme variant] | 1.21 | 0.747 | 0.756 | 0.347 | 0.711 | 0.662
AUUCACCUAGGUCAUCAGGAG [Fam2.2 aminoacylation ribozyme variant] | 0.931 | 0.957 | 1.01 | 0.779 | 1.09 | 0.951
AUUCACCUAGGUCAUCAGGGG [Fam2.2 aminoacylation ribozyme variant] | 0.986 | 1.22 | 1.32 | 0.985 | 1.22 | 0.955
